The text below walks through data of patent US5985616, “Chimeric mammalian NPY Y5 receptors” (Schering Corporation, dated 1999).

Assay [1] has as its target rat NPY Y5 receptor expressed from pCR3.1-rY5A (rat, UniProt Q63634). Nature of the assay: radioligand binding at 100 pM [125I]PYY, membranes of COS1 cells transiently expressing the construct.
Experimental: (§1) PYY and 2.5–5 ug of membrane protein (50 ul final volume). […] PYY and various concentrations of competing peptides (200 ul final volume). […] Binding assays were incubated at room temperature for 90 minutes and were terminated by rapid vacuum filtration through glass fiber filters in 96-well format (Multiscreen FB Filter Plates, Millipore, Bedford, Mass. or Unifilter-96 GF/C, Packard, Meriden, Conn.) Prior to filtration the glass fiber filters were pretreated with 100 ul of 0.3 % polyethylenimine. Each filter was then washed 3 times with 100 ul of PBS. Radioactivity trapped on the filters was then counted by standard gamma counting techniques.
(§2) All receptors were expressed transiently in COS1 cells.
For assay [2], the target named is T1, human NPY Y5 receptor (human, UniProt Q15761). The description is as above.
Experimental: as §1, §2
Assay [3] has as its target T2, rat/human hybrid NPY Y5 receptor (rat/human chimera).
T2 chain: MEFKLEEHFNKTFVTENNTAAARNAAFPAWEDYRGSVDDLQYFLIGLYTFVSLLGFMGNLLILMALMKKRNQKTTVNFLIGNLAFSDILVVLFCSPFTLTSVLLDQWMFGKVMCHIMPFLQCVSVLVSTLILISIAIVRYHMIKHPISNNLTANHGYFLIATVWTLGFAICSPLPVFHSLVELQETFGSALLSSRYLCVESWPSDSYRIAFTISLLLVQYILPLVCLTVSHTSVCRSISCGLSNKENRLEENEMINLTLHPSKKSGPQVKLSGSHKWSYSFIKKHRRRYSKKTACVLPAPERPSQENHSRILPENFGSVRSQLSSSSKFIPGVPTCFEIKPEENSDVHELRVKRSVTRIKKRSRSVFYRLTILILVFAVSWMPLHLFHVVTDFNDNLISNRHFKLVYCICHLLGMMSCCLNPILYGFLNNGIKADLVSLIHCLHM
Described as above.
Experimental: as §1, §2

For assay [4], the target named is T2, rat/human hybrid NPY Y5 receptor. Kind of assay: competition with 0.1 nM [125I]PYY, membranes of COS1 cells transiently expressing the receptor.
Experimental: as §1
(§3) Peptide affinities were measured in competition binding assays with membranes from COS1 cells transiently expressing the human Y_5 and rat/human hybrid Y_5 receptors.
For assay [5], the target named is T1, human NPY Y5 receptor. The assay is described as above.
Experimental: as §1, §3

B1: [125I] porcine peptide YY (ligand)
peptide: not shown
modifications: 125I label
Consider B1, for which the “Level of Expression (fmol/mg protein), radioligand bound at 100 pM” value in assay [1] was found to be 100 fmol/mg protein; with human NPY Y5 receptor [2], 103 fmol/mg protein; in assay [3] it was 298 fmol/mg protein.

B2: Human PP (ligand)
peptide: APLEPVYPGDNATPEQMAQYAADLRRYINMLTRPRY
In the case of B2, the Ki (usually the equilibrium dissociation constant of an inhibitor or competing ligand from its target) in assay [4] was found to be 2.86 nM.

B3: Rat PP (ligand)
peptide: APLEPMYPGDYATHEQRAQYETQLRRYINTLTRPRY
B3: the values for the Ki (with human NPY Y5 receptor [5]; in assay [4]) were 60 nM and 75.6 nM, respectively.
